{"source": "patent US20210025877A1", "about": "(CYTOMX THERAPEUTICS, published 2021)", "binders": {"B1": {"name": "anti-idiotypic antibody 17G1 (antibody, mouse IgG2a, kappa, V domains shown)", "VH": "EVQLVESGGDLVKPGGSLKVSCAASGFTFSSYGMSWVRQTPDKRLEWVATISPSGIYTYYPVTVKGRFTISRDNAKNTLYLQMSSLKSEDTAMYFCARHHPNYGSTYLYYIDYWGQGTALTVSS", "VL": "NIMMTQSPSSLAVSAGEKVTMACKSSQSVFSSSNQKNYLAWYQQKPGQSPKILIYWAFTRESGVPDRFSGSGSGTDFTLTISSVQAEDLAVYYCYQYLSSLTFGAGTKLEVKA", "notes": "Mouse monoclonal, mIgG2a heavy chain and mouse kappa light chain; also called anti-id antibody 17G1; anti-id 17G1 antibody"}}, "target": "T1, anti-PDL1 activatable antibody PL07-2001-C5H9v2 (intact)", "T1 construct": "In the Wes assay the sample is separated by SDS-based capillary electrophoresis before probing; also called AA", "T1 sequence (heavy, as listed by the source, chain 1 of 2)": "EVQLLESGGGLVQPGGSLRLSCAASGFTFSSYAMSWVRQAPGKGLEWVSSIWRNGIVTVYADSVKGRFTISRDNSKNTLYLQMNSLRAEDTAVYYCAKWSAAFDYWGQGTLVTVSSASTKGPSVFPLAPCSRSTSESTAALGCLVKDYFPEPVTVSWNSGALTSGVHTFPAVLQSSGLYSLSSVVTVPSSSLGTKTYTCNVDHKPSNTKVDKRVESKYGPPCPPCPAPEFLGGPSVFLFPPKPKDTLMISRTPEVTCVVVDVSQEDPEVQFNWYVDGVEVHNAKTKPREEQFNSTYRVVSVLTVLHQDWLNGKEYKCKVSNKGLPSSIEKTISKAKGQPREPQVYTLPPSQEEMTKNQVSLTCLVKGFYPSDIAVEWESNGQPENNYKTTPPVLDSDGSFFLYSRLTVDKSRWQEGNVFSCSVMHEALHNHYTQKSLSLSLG", "T1 sequence (light, as listed by the source, chain 2 of 2)": "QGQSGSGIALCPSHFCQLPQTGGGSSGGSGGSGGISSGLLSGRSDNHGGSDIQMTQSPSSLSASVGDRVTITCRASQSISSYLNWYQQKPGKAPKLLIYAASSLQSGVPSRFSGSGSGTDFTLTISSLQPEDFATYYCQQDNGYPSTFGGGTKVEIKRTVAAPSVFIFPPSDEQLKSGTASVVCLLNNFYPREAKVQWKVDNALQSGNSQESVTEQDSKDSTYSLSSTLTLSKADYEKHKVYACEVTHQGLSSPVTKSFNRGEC", "assay": "Wes capillary electrophoresis immunoassay, mouse plasma"}
{"binder": "B1", "values": [{"measurement": "binding result", "result": "binds"}]}
